Data: PMC1781933, “Structure-based engineering of papillomavirus major capsid L1: controlling particle assembly” (Virology Journal, 2007)

Molecular target: the molecule itself
Assay: SEC; Superdex-200, L1 eluted from the glutathione column after thrombin cleavage; step: L1 chains to pentamer

B1: full-length HPV16 L1 (natural protein)
chain: MSLWLPSEATVYLPPVPVSKVVSTDEYVARTNIYYHAGTSRLLAVGHPYFPIKKPNNNKILVPKVSGLQYRVFRIHLPDPNKFGFPDTSFYNPDTQRLVWACVGVEVGRGQPLGVGISGHPLLNKLDDTENASAYAANAGVDNRECISMDYKQTQLCLIGCKPPIGEHWGKGSPCTNVAVNPGDCPPLELINTVIQDGDMVDTGFGAMDFTTLQANKSEVPLDICTSICKYPDYIKMVSEPYGDSLFFYLRREQMFVRHLFNRAGAVGENVPDDLYIKGSGSTANLASSNYFPTPSGSMVTSDAQIFNKPYWLQRAQGHNNGICWGNQLFVTVVDTTRSTNMSLCAAISTSETTYKNTNFKEYLRHGEEYDLQFIFQLCKITLTADVMTYIHSMNSTILEDWNFGLQPPPGGTLEDTYRFVTSQAIACQKHTPPAPKEDPLKKYTFWEVNLKEKFSADLDQFPLGRKFLLQAGLKAKPKFTLGKRKATPTTSSTSTTAKRKKRKL
notes: major capsid protein L1 of human papillomavirus type 16, full-length clone in pGEX-2T; Purified as pentamers; forms T = 7 particles in assembly buffer; also called wild-type L1; major capsid L1 protein; source: E. coli, expressed as GST-L1 fusion from pGEX-2T, glutathione column, cleaved with thrombin, Superdex-200; not shown: GST, N-terminal, cleaved
- stoichiometry N: 5
